Assay results taken from PMC12051055, “Spectroscopy and crystallography define carotenoid oxygenases as a new subclass of mononuclear non-heme Fe^II enzymes” (The Journal of Biological Chemistry, 2025).

Columns and labels:
[1] = system: Oc1cc(O)cc(/C=C/c2ccc(O)c(O)c2)c1; assay: X-ray crystal structure of complex, MCD; the value is the apparent Km from steady-state kinetics; format: biochemical, Neurospora crassa; conditions: Fe(II) active site
CC=Cc1ccc(O)c(OC)c1 = assay: steady-state kinetics of cleavage to vanillin by purified enzyme (apparent Km); format: biochemical, Neurospora crassa; conditions: Fe(II)
[2] = ~[…]° rotation of the β-ring toward the vacancy left from the absent Thr side chain
[3] = β-ring rotated ~[…]° away from the Val151 side chain

Row | Substance | Km ([1]; rotation of the β-ring toward the vacancy left from the absent Thr side chain) [µM] | kcat [1, 2] [s⁻¹] | kcat/Km [1, 2] [M⁻¹ s⁻¹] | Km ([1]; β-ring rotated away from the Val151 side chain) [µM] | kcat [1, 3] [s⁻¹] | kcat/Km [1, 3] [M⁻¹ s⁻¹] | Km (CC=Cc1ccc(O)c(OC)c1) [µM]
1 | CAO1 (Neurospora crassa carotenoid oxygenase 1) (Neurospora crassa OR74A; T151G) | 0.110 ± 0.013 | 0.089 ± 0.003 | 810000 ± 100000 |  |  |  | 
2 | CAO1 (Neurospora crassa carotenoid oxygenase 1) (Neurospora crassa OR74A; T151V) |  |  |  | 0.027 ± 0.003 | 1.04 ± 0.024 | 3.87e+07 ± 4.42e+06 | 93.92 ± 12.27
